Test results taken from article PMC9561612.

Biological target: CXCR4 receptor (human (endogenous in MDA-MB-231)) (UniProt P61073)
Chain of UniProt P61073 (P61073 whole entry): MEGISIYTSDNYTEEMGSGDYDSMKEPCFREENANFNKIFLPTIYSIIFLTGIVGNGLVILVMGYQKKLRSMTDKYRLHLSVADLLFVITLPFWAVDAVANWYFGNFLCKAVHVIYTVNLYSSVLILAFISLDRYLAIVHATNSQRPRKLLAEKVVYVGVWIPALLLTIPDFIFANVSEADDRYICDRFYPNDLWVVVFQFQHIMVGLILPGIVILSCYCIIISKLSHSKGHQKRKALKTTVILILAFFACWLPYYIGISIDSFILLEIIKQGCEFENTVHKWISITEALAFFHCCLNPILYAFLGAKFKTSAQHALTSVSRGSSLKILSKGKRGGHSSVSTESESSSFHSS

OHD_(4–12) (Obligate HeteroDimer CXCL4–CXCL12) (from UniProt P48061-2 22-89) (complex)
cytoplasmic Ca2+ release in MDA-MB-231 cells (Fura-2), dose response to OHD (4–12), EC50: 1.3 nM
